Assays:
[1] = target: Rhesus CCR5 (Rhesus Macaque); test: cell-based or functional assay
human CCR5 (human) = human CCR5 (human) (UniProt P51681); test: cell-based or functional assay

Row | Substance | % Inhibition, Rhesus PBMC (#810) x 12E1/SIV239, inhibitor at 20 µg/ml [1] [%] | No. of Syncytia, Rhesus PBMC (#810) x 12E1/SIV239, inhibitor at 20 µg/ml [1] [syncytia] | % Inhibition, PM1 x 12E1/BaL, inhibitor at 20 µg/ml (human CCR5 (human)) [%] | CCR5-tropic virus neutralization (percent inhibition of p24) at 50 µg/ml (human CCR5 (human)) [%] | IC50 of PBMC infection by BaL, JR-CSF and 92US657 (human CCR5 (human)) [mg/L] | No. of Syncytia, PM1 x 12E1/BaL, inhibitor at 20 µg/ml (human CCR5 (human)) [syncytia] | % Inhibition, Rhesus PBMC (#810) x 12E1/SIV239, inhibitor at 25 µg/ml [1] [%] | No. of Syncytia, Rhesus PBMC (#810) x 12E1/SIV239, inhibitor at 25 µg/ml [1] [syncytia] | % Inhibition, PM1 x 12E1/BaL, inhibitor at 25 µg/ml (human CCR5 (human)) [%] | No. of Syncytia, PM1 x 12E1/BaL, inhibitor at 25 µg/ml (human CCR5 (human)) [syncytia]
1 | monoclonal antibody (mAb) 2D7 | 4 | 258 | 99 | 82 to 93 | 2 to 4 | 5 |  |  |  | 
2 | pre-immune rabbit IgG (antibody) |  |  |  |  |  |  | 0 | 285 | 0 | 487

Source: US20100266598A1
